Experiment: soluble on expression in E. coli; label from the status in PepcDB or PDB records

Row | Sequence | soluble on expression in E. coli
1 | MGSDKIHHHHHHMPATFAHCLLAREAMERFGKSKLFPGVLKTKNHFVVMGATGPDYPYLTDVMKYGVLHIGHNWANRMHYENIDGFILEGIKKLSSMNKTSEEFKNCLAWFSGYVSHVVADSYLHPVVNSTVHGIYLFTNEKHGRCELVQDIYIFKKMTDTDICAAAARDRNSFGYLSILDDCSDPQDLDKIHPHIRVFWSELLKAAHPYASDYFGDLNLDEWHKNYKGRVDFAADSQSIFRHVLDIANAPRYVPWTASSISKEERSKYIDNVETPRGTKQSYDTLFSLVADQIAATWNALFPYIKNGQVPPATLVKDWNLDTGVDESKIDFWKEA | not soluble
2 | MSLFLKDDSIQIREVWNDNLQEEMDLIRDVVDDFPYVAMDTEFPGIVVRPVGTFKSNADYHYETLKTNVNILKMIQLGLTFSNEQGNLPTCGTDKYCIWQFNFREFDLDSDIFALDSIELLKQSGIDLAKNTLDGIDSKRFAELLMSSGIVLNENVHWVTFHSGYDFGYLLKLLTCQNLPDSQTDFFKLINVYFPTVYDIKHLMKFCNSLHGGLNKLAELLEVERVGICHQAGSDSLLTSCTFRKLKENFFVGPLHKYSGVLYGLGVENGQVAI | soluble
3 | MKSLRFQSVFDIIGPVMIGPSSSHTAGAVRIGKIVSSIFDDTPTEVEFQLFNSFAKTYRGHGTDLALVAGILGMDTDDPEIPNSLEIAHKRGIKIVWTIQKDSNAPHPNTTKITVKNAHKTISVTGISIGGGNIQVTELNGF | not soluble
4 | SLELWLNKATDPSMSEQDWSAIQNFCEQVNTDPNGPTHAPWLLAHKIQSPQEKEALYALTVLEMCMNHCGEKFHSEVAKFRFLNELIKVLSPKYLGSWATGKVKGRVIEILFSWTVWFPEDIKIRDAYQMLKKQGIIKQDPKLPVDKI | soluble
5 | MTERSPLRVGIGGPVGSGKTALTLNLCRALRNKYNMAVVTNDIYTKEDSNFLTRNEAMTPDRIVGVETGGCPHTAIREDASINLAAIDDLCEKFDGLELIIIESGGDNLAATFSPELSDLTLYVIDVAGGEKIPRKGGPGITKSDLLIINKTDLAPMVGANLDVMEQDAKRMRGEKPFLFSNMKTEDGLTQIIEFIEKQGLFKALEHHHHHH | soluble
6 | MYRSHFIADVTPEYDGKEVIWAGWVHLLRDLGGKKFIILRDKTGLGQVVVDKNSSAFGISQELTQESVIQVRGIVKADKRAPRGIELHAEEITLLSKAKAPLPLDVSGKVKADIDTRLRERVLDLRRQEMQAVIKIQSLALKAFRETLYKEGFIEIFTPKIIASATEGGAQLFPVIYFGKEAFLAQSPQLYKELMAGVVERVFEVAPAWRAEESDTPFHLAEFISMDVEMAFADYNDVMQLLEKILHNIVKTIKEEGKEELKILNYEPPEVKIPIKRLKYTEAIEILRSKGYNIKFGDDIGTPELRILNEELKEDLYFIVDWPSDARPFYTKSKSENPELSESFDLIYKFLEIVSGSTRNHKREVLEEALKKKGLKPESFEFFLKWFDYGMPPHAGFGMGLARLMVMLTGIQSVKEIVPFPRDKKRLTP | soluble
7 | MGSDKIHHHHHHMTVIAVAGKGGTGKTLVSALLINFISEHTTSVLAVDADPDSNLPEALGVEKQVRKTLGEIRELFQVSRDEMGSMNKEQWLEGKIYAEAICECPRYDLLVMGRPEGEGCYCFANSLLRGVLKRLMRHYEYIIIDTEAGLEHFSRKTIDSADYIIIVTDMSRKGLATAKRIKELASELKLNFKKIFLIANRIASEDAEKTIREFAKEEGLELLAVLPYDSSVAEIDLRGEPVSKIDKNSEVYRKMKDVANLMLNLSAKAR | not soluble
8 | MGSDKIHHHHHHMEKSSIYGLTWTNLTEWLEAHGQKKFRATQVWDWLYRKRVKTFEEMSNVPKETIELLTANFVMNTLEEQVVQESTDGTTKYLFKLSDGNLIETVMMKQEYGLSVCVTTQVGCNIGCTFCASGLLKKSRDLTAGEIVEQIMNVQHYLDGRNLEERVSHVVVMGIGEPFDNYDNVMDFLRVINHDKGLAIGARHITVSTSGLAPRIIDFANEDFQVNLAISLHAPNNELRTSIMRINKTYSIEKLMEAIHYYVNKTNRRITFEYIMLKGVNDHKKEALELAALLGEHRHLAYVNLIPYNPVDEHIDYERSTKEDVLAFYDTLKKNGINCVIRREHGTDIDAACGQLRSKQIKRVGVRERMKQKQAAAEE | not soluble
9 | MKKILFICLGNICRSPMAEFIMKDLVKKANLEKEFFINSAGTSGEHDGEGMHYGTKNKLAQLNIEHKNFTSKKLTQKLCDESDFLITMDNSNFKNVLKNFTNTQNKVLKITDFSPSLNYDEVPDPWYSGNFDETYKILSLACKNLLVFLSKHHHHH | soluble
10 | MQKNNNKLTMSARFGEWYKEATENCAERELYATSLIARMDWVVDPISSKSYRYDLTTDLNKNHSSAWYDVATEICNKRKETVIRAILEDNIKIENF | soluble
11 | MAHHHHHHMKYGQVVVGPAGSGKTNYCKLMKEFMKIKKRNCYVVNLDSASEEYYYERKKKAINTTSNIEKELKQYYDTIYDIDIRNYVDVNSLMEDQMLGPNCALLRSVELLYENSYLLEDELNNYDDDENYFIIDTPGQIELYTHTDYFKKILSIFTDQNIRLIVVFLVDISFISSNTKLLSAYLTSLSTMINFELPHINILTKCDLLASKNYYQELRKFKHNNNFFFQRKLYKKINKKIKGGRGSRFFLNDKAEQSDGEGKRPSDDLGDTFLKEMECINGDKSFKDEYILCSDYDKRSVSSFSSASMSEGRSEKFGKNSSDEHSSSSVRSEEIEEKIYQKNYEKLNDILSLDPHDIVMTANKCMSRKYYKLNNAFAHIIEDFNLVSFIPLNIYDDDNVDFIINSIDMIIQYGEDKDVNDNYDM | not soluble
12 | MGSDKIHHHHHHMKNKAESLASSSASILTLGLGWFPKNPGGLERYMYELTHKLAANKDQIELCGVGLPEAERNSPIKLTNLASPDSAIWQRLWSIRTNFQKTRTNKPDAINLHFALYSFPLLDILPKGVPVTFNFHGPWASESQQEVVNKNLSLLIKHHLIEKNTYNHCDRFIVLSKAFGKILHDKYQVPWSKINIIPGGVDINWFQPNLSRQDACKQLGWPNNRRIIFTSRRLVHRTGVDKLLKALAIIKPRIPDVWLAIAGRGHIQAALQQQATELGLDDNVKFLGFLPDEQLPIAYQAAELTIMPSQSFEGFGLVIVESLACGTPVLCTPVGGMPEILSEFSPDLITTSTEASAIAEKLEQVLLGNIPIPSREACRHYAVTHYDWNQIAQQVRNVLLN | not soluble
13 | MGSDKIHHHHHHMHEAVARMLAKYEPKSVDDSVRALREIIQEVALLGLWRSKFFEHAAFYGGTALRILYGLDRFSENLDFSLLEPSPDFNLARYTASLEEELSAFGFNVRVEMVGKAVESAVQSAFLKANTRNELLVIETGGELAGQVAAGQVLKVKIEVDTDPPTGFTTSTRYLLQPIPFAVRSYSLPDLFAGKMHALLFRRWKNRVKGRDWYDFVWYAANHPQLNLAHLEQRMRQTGHWSGDLPLSAAAFRELLSDSIDRLDVDQARNDVAPFVKDQQALALWSHDFFRDVARRVQTDEG | not soluble
14 | SNAMKADILLVSHSKMITDGIKEMIEQMNASEEITIHSLGGTSDGSLGSDPMKIIDTINEADSDREFLIFADLGSAVLSSELAFDMLEEDQQKHYHLVDAPLVEGAFASAITAGVSDDLTQILAEAQNAGKKGWN | soluble
15 | MSLDLHNDLKSYLSELNTYSHVDKNEIYHSQRAGYMTGGGISIRNGASHTALAQVSLPKFDAGCGGIDIFTGGISFISHDQLIAALKNIASSAQGYAFMLGIETVSPLIASTMKQMETWANAINSLGINSCEVATGLVGSVWPARTAAKQQICRSAKNGGFASSFINARHQCADEGDYAKTMQSMAKDPLYDGMLLEEYNLTWKAVQKHPFLAKKENRKMAEEIMSLTGTLIIRRDKSLVVEPWPSRIYDDSFLPILLEGGTTRVYQCTGGNAKQNCLALEMKELTIPAEQAWKGRIKQALATIQQKILADTPLASEEIDLLSKSRLPLFKIVNVLTAYKREVSPISLYEVAEIVGNEMLIQYLREIIGTVRLAAIQLERGQMYDFDSQKFIEELERVEKVVSRYEERHYQRLEAENQLMLKIETLEQKIASQIILFEGHHHHHH | not soluble
16 | MGSSHYHHHHSSGLVPRGSHMAEKPISPTKTRTRFEDIQAHYDVSDDFFALFQDPTRTYSCAYFEPPELTLEEAQYAKVDLNLDKLDLKPGMTLLDIGCGWGTTMRRAVERFDVNVIGLTLSKNQHARCEQVLASIDTNRSRQVLLQGWEDFAEPVDRIVSIEAFEHFGHENYDDFFKRCFNIMPADGRMTVQSSVSYHPYEMAARGKKLSFETARFIKFIVTEIFPGGRLPSTEMMVEHGEKAGFTVPEPLSLRPHYIKTLRIWGDTLQSNKDKAIEVTSEEVYNRYMKYLRGCEHYFTDEMLDCSLVTYLKPGAAA | soluble
17 | MSKFAMVFPGQGSQSLGMLADLAAQFPIVEATFSEASSVLGYDLWQLVQQGPAEELNKTWQTQPALLTASVAIWRIWQHQGGKLPSLMAGHSLGEYSALVCAGVLDFKQAVSLVELRGKLMQEAVPEGTGAMYAIIGLDNESIAKACEESAQGQVVSPVNFNSPGQVVIAGNKDAVERAGAACKAAGAKRALPLPVSVPSHCALMKPAADKLAVALEKIDFQEPLFPVVNNVDVKAEVSPVAIRSALVRQLYNPVRWTESVEFIAAEGVELLLEIGPGKVLTGLTKRIVDSLAAAAVNDVVTLNSALEH | not soluble
18 | SNAMKRSIEDTPIVLIGAGNLATNLAKALYRKGFRIVQVYSRTEESARELAQKVEAEYTTDLAEVNPYAKLYIVSLKDSAFAELLQGIVEGKREEALMVHTAGSIPMNVWEGHVPHYGVFYPMQTFSKQREVDFKEIPFFIEASSTEDAAFLKAIASTLSNRVYDADSEQRKSLHLAAVFTCNFTNHMYALAAELLKKYNLPFDVMLPLIDETARKVHELEPKTAQTGPAIRYDENVIGNHLRMLADDPAMQRLYELLSRSIHERQ | soluble
19 | GHMKCPVCHQGEMVSGIKDIPYTFRGRKTVLKGIHGLYCVHCEESIMNKEESDAFMAQVKAFRASVNAETVAPEFIVKVRKKLSLTQKEASEIFGGGVNAFSRYEKGNAQPHPSTIKLLRVLDKHPELLNEIR | soluble
20 | MADLIARLREDGIQKRVIQEGRGELPDFQDGTKATFHFRTLHSDNEGSVIDDSRTRGKPMELIVGKKFKLPVWETIVCTMREGEIAQFLCDIKHVVLYPLVAKSLRNIAEGKDPLEGQRHCCGIAQMHEHSSLGHADLDALQQNPQPLIFHIEMLKVESPGTYQQDPWAMTDEEKAKAVPVIHQEGNRLYREGQVKEAAAKYYDAIACLKNLQMKEQPGSPDWIQLDLQITPLLLNYCQCKLVAQEYYEVLDHCSSILNKYDDNVKAYFKRGKAHAAVWNAQEAQADFAKVLELDPALAPVVSRELRALETRIRQKDEEDKARFRGIFSH | soluble
